Test results: IntAct's records for PubMed 17828277

B1: Microtubule-associated protein RP/EB family member 1 (Homo sapiens), Q15691 (parent)
chain: MAVNVYSTSVTSDNLSRHDMLAWINESLQLNLTKIEQLCSGAAYCQFMDMLFPGSIALKKVKFQAKLEHEYIQNFKILQAGFKRMGVDKIIPVDKLVKGKFQDNFEFVQWFKKFFDANYDGKDYDPVAARQGQETAVAPSLVAPALNKPKKPLTSSSAAPQRPISTQRTAAAPKAGPGVVRKNPGVGNGDDEAAELMQQVNVLKLTVEDLEKERDFYFGKLRNIELICQENEGENDPVLQRIVDILYATDEGFVIPDEGGPQEEQEEY
B2: CAP-Gly domain-containing linker protein 1 (Homo sapiens), P30622-1 (parent)
chain: MSMLKPSGLKAPTKILKPGSTALKTPTAVVAPVEKTISSEKASSTPSSETQEEFVDDFRVGERVWVNGNKPGFIQFLGETQFAPGQWAGIVLDEPIGKNDGSVAGVRYFQCEPLKGIFTRPSKLTRKVQAEDEANGLQTTPASRATSPLCTSTASMVSSSPSTPSNIPQKPSQPAAKEPSATPPISNLTKTASESISNLSEAGSIKKGERELKIGDRVLVGGTKAGVVRFLGETDFAKGEWCGVELDEPLGKNDGAVAGTRYFQCQPKYGLFAPVHKVTKIGFPSTTPAKAKANAVRRVMATTSASLKRSPSASSLSSMSSVASSVSSRPSRTGLLTETSSRYARKISGTTALQEALKEKQQHIEQLLAERDLERAEVAKATSHVGEIEQELALARDGHDQHVLELEAKMDQLRTMVEAADREKVELLNQLEEEKRKVEDLQFRVEEESITKGDLETQTKLEHARIKELEQSLLFEKTKADKLQRELEDTRVATVSEKSRIMELEKDLALRVQEVAELRRRLESNKPAGDVDMSLSLLQEISSLQEKLEVTRTDHQREITSLKEHFGAREETHQKEIKALYTATEKLSKENESLKSKLEHANKENSDVIALWKSKLETAIASHQQAMEELKVSFSKGLGTETAEFAELKTQIEKMRLDYQHEIENLQNQQDSERAAHAKEMEALRAKLMKVIKEKENSLEAIRSKLDKAEDQHLVEMEDTLNKLQEAEIKVKELEVLQAKCNEQTKVIDNFTSQLKATEEKLLDLDALRKASSEGKSEMKKLRQQLEAAEKQIKHLEIEKNAESSKASSITRELQGRELKLTNLQENLSEVSQVKETLEKELQILKEKFAEASEEAVSVQRSMQETVNKLHQKEEQFNMLSSDLEKLRENLADMEAKFREKDEREEQLIKAKEKLENDIAEIMKMSGDNSSQLTKMNDELRLKERDVEELQLKLTKANENASFLQKSIEDMTVKAEQSQQEAAKKHEEEKKELERKLSDLEKKMETSHNQCQELKARYERATSETKTKHEEILQNLQKTLLDTEDKLKGAREENSGLLQELEELRKQADKAKAAQTAEDAMQIMEQMTKEKTETLASLEDTKQTNAKLQNELDTLKENNLKNVEELNKSKELLTVENQKMEEFRKEIETLKQAAAQKSQQLSALQEENVKLAEELGRSRDEVTSHQKLEEERSVLNNQLLEMKKRESKFIKDADEEKASLQKSISITSALLTEKDAELEKLRNEVTVLRGENASAKSLHSVVQTLESDKVKLELKVKNLELQLKENKRQLSSSSGNTDTQADEDERAQESQIDFLNSVIVDLQRKNQDLKMKVEMMSEAALNGNGDDLNNYDSDDQEKQSKKKPRLFCDICDCFDLHDTEDCPTQAQMSEDPPHSTHHGSRGEERPYCEICEMFGHWATNCNDDETF

Variants of: B1
Conditions: with dctn1_human DCTN1, Q14203
Target sequence in this assay (Q14203 whole entry): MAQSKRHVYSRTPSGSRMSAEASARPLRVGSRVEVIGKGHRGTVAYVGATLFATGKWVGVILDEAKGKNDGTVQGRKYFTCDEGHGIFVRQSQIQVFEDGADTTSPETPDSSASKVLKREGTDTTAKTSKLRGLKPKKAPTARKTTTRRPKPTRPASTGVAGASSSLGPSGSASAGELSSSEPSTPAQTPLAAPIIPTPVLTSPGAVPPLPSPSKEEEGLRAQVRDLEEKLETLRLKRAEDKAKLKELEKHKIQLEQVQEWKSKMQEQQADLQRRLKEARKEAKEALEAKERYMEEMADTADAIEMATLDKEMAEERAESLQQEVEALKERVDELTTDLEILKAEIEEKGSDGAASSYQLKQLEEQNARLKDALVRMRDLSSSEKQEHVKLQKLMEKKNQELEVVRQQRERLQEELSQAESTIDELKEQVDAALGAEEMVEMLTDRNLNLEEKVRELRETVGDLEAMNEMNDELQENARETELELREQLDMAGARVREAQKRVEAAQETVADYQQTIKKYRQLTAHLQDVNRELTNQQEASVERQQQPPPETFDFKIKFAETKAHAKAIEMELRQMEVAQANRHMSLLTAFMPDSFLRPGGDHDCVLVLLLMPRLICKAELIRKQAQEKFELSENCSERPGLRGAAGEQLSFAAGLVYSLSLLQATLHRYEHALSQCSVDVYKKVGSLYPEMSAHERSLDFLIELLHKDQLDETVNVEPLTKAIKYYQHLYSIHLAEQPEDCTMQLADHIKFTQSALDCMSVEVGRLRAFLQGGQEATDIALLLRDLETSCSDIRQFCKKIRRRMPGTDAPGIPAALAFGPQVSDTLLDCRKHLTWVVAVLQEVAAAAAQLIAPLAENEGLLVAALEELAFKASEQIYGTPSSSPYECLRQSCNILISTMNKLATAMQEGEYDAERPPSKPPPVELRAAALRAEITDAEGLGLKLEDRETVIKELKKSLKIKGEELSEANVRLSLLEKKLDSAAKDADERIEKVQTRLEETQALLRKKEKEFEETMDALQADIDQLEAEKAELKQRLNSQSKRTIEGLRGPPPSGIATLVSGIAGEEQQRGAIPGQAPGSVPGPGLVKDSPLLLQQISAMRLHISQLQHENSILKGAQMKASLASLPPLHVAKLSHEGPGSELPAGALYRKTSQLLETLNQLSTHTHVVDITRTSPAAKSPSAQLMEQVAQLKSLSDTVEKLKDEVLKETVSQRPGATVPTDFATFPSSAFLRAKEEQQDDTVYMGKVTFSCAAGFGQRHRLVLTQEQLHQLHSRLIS

Variant	effect of a mutation on the interaction
Y268I	decreasing interaction strength
Y268G	decreasing interaction strength

Variants of: B2
Conditions: with dctn1_human DCTN1, Q14203
Target sequence in this assay (Q14203 whole entry): as above

Variant	effect of a mutation on the interaction
I1410H	decreasing interaction strength
I1410D	decreasing interaction strength
